One block for each substance: values may come before it.
What was measured:
[1] = molecular target: FMAL-labeled F-actin (rabbit) (UniProt P68135); assay: FRET or BRET
[2] = molecular target: FMAL-labeled F-actin (rabbit) (UniProt P68135); assay: co-sedimentation
[3] = molecular target: FMAL-labeled RLC-exchanged full-length cardiac myosin (porcine (ventricles) | human) (UniProt P79293); assay: FRET or BRET
[4] = molecular target: FMAL-labeled F-actin (rabbit skeletal muscle) (rabbit) (UniProt P68135); assay: FRET or BRET

Substance: C0-C2^cys330 (domain or fragment)
EC50 [1]: 6.3 µM
EC50 [3]: 6.9 µM

Substance: C0-C2^(cys249, L349R), PKA-phosphorylated (domain or fragment)
FLT-FRET at 2.5 μM relative to WT (relative to WT) [1]: 1.31

Substance: TMR-C0-C2^(cys249, L352P) (domain or fragment)
EC50 [4]: 1.31 µM

Substance: C0-C2^(cys330, R282W) (domain or fragment)
FLT-FRET at 2.5 μM relative to WT (relative to WT) [1]: 1.1

Substance: C0-C2^(cys249, E334K), PKA-phosphorylated (domain or fragment)
FLT-FRET at 2.5 μM relative to WT (relative to WT) [3]: 1.7

Substance: TMR-C0-C2^cys249 (domain or fragment)
EC50 [4]: 2.12 µM

Substance: C0-C2^(cys330, E334K), PKA-phosphorylated (domain or fragment)
FLT-FRET at 2.5 μM relative to WT (relative to WT) [3]: 2

Substance: C0-C2^cys249 (domain or fragment)
EC50 [1]: 3 µM
EC50 [3]: 3.4 µM

Substance: C0-C2^(cys330, L349R) (domain or fragment)
FLT-FRET at 2.5 μM relative to WT (relative to WT) [3]: 1.6

Next, values leading:

fold change of EC50 upon phosphorylation [1]: 1.7 fold
reduction of FRET at 2.5 μM upon phosphorylation [1]: 52%
fold increase of EC50 upon phosphorylation [2]: 1.6 fold
Substance: C0-C2^cys249, PKA-phosphorylated (domain or fragment)

EC50 [1]: 1.4 µM
EC50 [3]: 9 µM
Substance: C0-C2^cys85 (domain or fragment)

FLT-FRET at 2.5 μM relative to WT (relative to WT) [1]: 1.1
Substance: C0-C2^(cys249, L349R) (domain or fragment)

fold change of EC50 upon phosphorylation [1]: 2.9 fold
reduction of FRET at 2.5 μM upon phosphorylation [1]: 52%
fold increase of EC50 upon phosphorylation [2]: 1.1 fold
Substance: C0-C2^cys85, PKA-phosphorylated (domain or fragment)

From PMC10872421
